According to patent US20210230287A1:

Columns and labels:
[1] = target: human 4-1BB, full-length, on cells (human) (UniProt Q07011); experiment: flow cytometry on human 4-1BB-expressing CHO-K1 cells, PE goat anti-human IgG Fc, MFI
[2] = target: cynomolgus 4-1BB extracellular domain, His tag (cynomolgus) (UniProt A9YYE7); experiment: SPR, Biacore T200; antibody captured on Protein G chip, cynomolgus 4-1BB ECD.His as analyte
Sequence of cynomolgus 4-1BB extracellular domain, His tag (cynomolgus) (A9YYE7 entry or part of it): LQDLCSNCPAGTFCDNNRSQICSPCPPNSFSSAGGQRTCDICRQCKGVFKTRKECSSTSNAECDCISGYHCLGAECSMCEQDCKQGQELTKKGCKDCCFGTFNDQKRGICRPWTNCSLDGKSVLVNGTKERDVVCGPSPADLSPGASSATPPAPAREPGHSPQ

Sequence of human 4-1BB, full-length, on cells (human) (Q07011 24-255 limits assumed): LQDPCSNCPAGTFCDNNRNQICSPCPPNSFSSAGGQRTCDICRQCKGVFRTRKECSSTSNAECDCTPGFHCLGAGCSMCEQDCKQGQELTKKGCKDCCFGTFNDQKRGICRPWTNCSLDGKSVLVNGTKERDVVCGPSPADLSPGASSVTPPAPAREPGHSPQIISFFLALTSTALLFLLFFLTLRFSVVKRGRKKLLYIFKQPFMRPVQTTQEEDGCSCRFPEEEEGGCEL
Sequence of BMK4.hIgG2L(Pfizer) (antibody) (VH): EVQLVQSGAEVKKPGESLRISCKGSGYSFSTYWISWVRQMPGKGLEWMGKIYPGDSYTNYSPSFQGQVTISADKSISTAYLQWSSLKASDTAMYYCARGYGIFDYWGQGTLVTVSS
Sequence of BMK4.hIgG2L(Pfizer) (antibody) (VL): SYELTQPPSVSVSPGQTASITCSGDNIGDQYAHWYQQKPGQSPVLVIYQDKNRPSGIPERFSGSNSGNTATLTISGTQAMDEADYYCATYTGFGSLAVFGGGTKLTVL

| EC50 (read off the curve) [1] [nM] | Kd [2] [nM] | Substance |
| --- | --- | --- |
| 0.2 | – | WBP342-BMK3.hIgG4 (antibody) |
| – | 16 | BMK4.hIgG2L(Pfizer) (antibody) |
